Measurements from publication PMC11552376, “Specific binding between Arabidopsis thaliana phytochrome-interacting factor 3 (AtPIF3) bHLH and G-box originated prior to embryophyte emergence” (BMC Plant Biology, 2024).

Experiments:
AtPIF3-bHLH R356A = biological target: T1, AtPIF3-bHLH R356A (Arabidopsis thaliana, UniProt O80536 340-397, R356A); assay: ITC; error exceeds value; ITC: 30 mM HEPES, 125 mM NaCl, pH 7.5, 25 C, 400 uM protein into 40 uM DNA; fEMSA: 30 mM HEPES, 500 mM NaCl, pH 7.4, on ice 30 min, 3 uM probe, 10% native gel in 0.5x TBE at 4 C; conditions: protein: recombinant; tags: C-terminal His6; chain copies: 2; blunt
T1 sequence: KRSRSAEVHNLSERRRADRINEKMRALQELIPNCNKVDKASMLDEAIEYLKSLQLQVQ

AtPIF3-bHLH H348A = biological target: T2, AtPIF3-bHLH H348A (Arabidopsis thaliana, UniProt O80536 340-397, H348A); assay: ITC; binding curve unsaturated; ITC: 30 mM HEPES, 125 mM NaCl, pH 7.5, 25 C, 400 uM protein into 40 uM DNA; fEMSA: 30 mM HEPES, 500 mM NaCl, pH 7.4, on ice 30 min, 3 uM probe, 10% native gel in 0.5x TBE at 4 C; conditions: protein: recombinant; tags: C-terminal His6; chain copies: 2; blunt
T2 sequence: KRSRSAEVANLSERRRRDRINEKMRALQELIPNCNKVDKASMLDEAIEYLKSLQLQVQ

B1: G-box (PER2), ITC (dsDNA)
DNA 1: AGGAACACGTGACCC
DNA 2: GGGTCACGTGTTCCT
Kd (AtPIF3-bHLH R356A): 106 ± 112 µM | Kd (AtPIF3-bHLH H348A): 3.39 ± 0.275 µM
